Measured values as given in the supplement of paper PMC5998384.

Columns and labels:
HeLa Kyoto [1] = test: solubility in G1/S (NP-40 vs SDS abundance) (log2 ratio); higher = more soluble; details: cell cycle stage: G1/S
HeLa Kyoto [2] = test: solubility change mitosis vs G1/S (difference of NP-40 vs SDS log2 ratios) (log2 ratio difference); higher = more soluble in mitosis
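Throughout, for solubility change mitosis vs G1/S (difference of NP-40 vs SDS log2 ratios): synchronized HeLa Kyoto cells (double thymidine block for G1/S, nocodazole release for mitosis), protein amounts in NP-40 versus SDS lysates quantified by mass spectrometry, three biological replicates.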
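Throughout, for solubility in G1/S (NP-40 vs SDS abundance): HeLa Kyoto cells arrested at G1/S by double thymidine block, proteins quantified by TMT10plex mass spectrometry in mild NP-40 versus SDS extracts, three biological replicates.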

CLK4, sequence (chain, as listed by the source): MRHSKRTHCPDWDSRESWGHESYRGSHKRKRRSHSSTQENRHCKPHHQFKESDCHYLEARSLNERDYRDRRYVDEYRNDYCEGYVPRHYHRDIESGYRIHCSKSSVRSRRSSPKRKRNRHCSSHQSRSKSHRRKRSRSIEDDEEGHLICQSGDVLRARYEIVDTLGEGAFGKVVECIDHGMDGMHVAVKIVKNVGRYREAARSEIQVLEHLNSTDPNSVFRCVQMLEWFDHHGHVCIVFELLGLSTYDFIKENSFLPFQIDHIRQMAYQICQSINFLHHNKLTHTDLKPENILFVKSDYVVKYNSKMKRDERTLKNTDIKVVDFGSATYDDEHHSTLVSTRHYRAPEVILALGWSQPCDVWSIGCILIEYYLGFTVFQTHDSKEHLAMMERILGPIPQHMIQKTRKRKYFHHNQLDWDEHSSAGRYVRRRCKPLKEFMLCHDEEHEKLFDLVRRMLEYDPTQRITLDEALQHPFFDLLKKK
WRN, sequence (chain, as listed by the source): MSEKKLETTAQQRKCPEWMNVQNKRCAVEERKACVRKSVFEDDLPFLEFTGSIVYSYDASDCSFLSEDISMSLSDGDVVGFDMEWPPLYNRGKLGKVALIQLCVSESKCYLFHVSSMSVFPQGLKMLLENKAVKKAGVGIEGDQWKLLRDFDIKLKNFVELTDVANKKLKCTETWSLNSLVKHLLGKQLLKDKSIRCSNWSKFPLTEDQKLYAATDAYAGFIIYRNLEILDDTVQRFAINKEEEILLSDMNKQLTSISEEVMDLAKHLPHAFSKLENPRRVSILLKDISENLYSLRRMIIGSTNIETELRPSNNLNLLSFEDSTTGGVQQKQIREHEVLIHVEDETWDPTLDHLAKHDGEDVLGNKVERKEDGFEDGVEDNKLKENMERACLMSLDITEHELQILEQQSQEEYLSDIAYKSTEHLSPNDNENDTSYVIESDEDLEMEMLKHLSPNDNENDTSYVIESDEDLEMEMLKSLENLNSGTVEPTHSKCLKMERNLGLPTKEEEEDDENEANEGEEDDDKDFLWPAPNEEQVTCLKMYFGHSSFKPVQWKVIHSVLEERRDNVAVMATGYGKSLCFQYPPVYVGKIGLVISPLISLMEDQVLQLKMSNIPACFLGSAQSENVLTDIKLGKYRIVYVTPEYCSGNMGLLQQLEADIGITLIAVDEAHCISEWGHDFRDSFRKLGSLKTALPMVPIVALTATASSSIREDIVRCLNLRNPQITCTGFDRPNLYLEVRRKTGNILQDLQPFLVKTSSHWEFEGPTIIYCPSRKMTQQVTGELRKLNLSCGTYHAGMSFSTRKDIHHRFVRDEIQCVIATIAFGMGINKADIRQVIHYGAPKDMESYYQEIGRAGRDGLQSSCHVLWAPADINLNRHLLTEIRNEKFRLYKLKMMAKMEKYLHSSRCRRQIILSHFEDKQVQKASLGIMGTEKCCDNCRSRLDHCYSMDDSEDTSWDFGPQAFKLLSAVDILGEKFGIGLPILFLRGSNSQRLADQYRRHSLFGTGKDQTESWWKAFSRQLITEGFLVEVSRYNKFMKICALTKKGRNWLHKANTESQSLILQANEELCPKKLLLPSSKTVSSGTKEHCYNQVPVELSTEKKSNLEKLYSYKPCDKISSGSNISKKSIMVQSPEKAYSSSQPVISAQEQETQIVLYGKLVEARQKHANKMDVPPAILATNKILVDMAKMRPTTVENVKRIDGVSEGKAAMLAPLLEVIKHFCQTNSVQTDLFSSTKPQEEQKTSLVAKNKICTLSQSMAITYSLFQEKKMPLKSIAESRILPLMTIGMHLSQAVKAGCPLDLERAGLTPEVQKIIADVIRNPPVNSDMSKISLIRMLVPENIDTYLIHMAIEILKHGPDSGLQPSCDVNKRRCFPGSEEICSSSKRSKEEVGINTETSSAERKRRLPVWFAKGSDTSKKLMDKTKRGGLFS

| Substance | solubility in G1/S (log2) (HeLa Kyoto [1]) | solubility change mitosis (log2) (HeLa Kyoto [2]) |
| --- | --- | --- |
| MNLQAQPKAQNKRKRCLFGGQEPAPKEQPPPLQPPQQSIRVKEEQYLGHEGPGGAVSTSQPVELPPPSSLALLNSVVYGPERTSAAMLSQQVASVKWPNSVMAPGRGPERGGGGGVSDSSWQQQPGQPPPHSTWNCHSLSLYSATKGSPHPGVGVPTYYNHPEALKREKAGGPQLDRYVRPMMPQKVQLEVGRPQAPLNSFHAAKKPPNQSLPLQPFQLAFGHQVNRQVFRQGPPPPNPVAAFPPQKQQQQQQPQQQQQQQQAALPQMPLFENFYSMPQQPSQQPQDFGLQPAGPLGQSHLAHHSMAPYPFPPNPDMNPELRKALLQDSAPQPALPQVQIPFPRRSRRLSKEGILPPSALDGAGTQPGQEATGNLFLHHWPLQQPPPGSLGQPHPEALGFPLELRESQLLPDGERLAPNGREREAPAMGSEEGMRAVSTGDCGQVLRGGVIQSTRRRRRASQEANLLTLAQKAVELASLQNAKDGSGSEEKRKSVLASTTKCGVEFSEPSLATKRAREDSGMVPLIIPVSVPVRTVDPTEAAQAGGLDEDGKGPEQNPAEHKPSVIVTRRRSTRIPGTDAQAQAEDMNVKLEGEPSVRKPKQRPRPEPLIIPTKAGTFIAPPVYSNITPYQSHLRSPVRLADHPSERSFELPPYTPPPILSPVREGSGLYFNAIISTSTIPAPPPITPKSAHRTLLRTNSAEVTPPVLSVMGEATPVSIEPRINVGSRFQAEIPLMRDRALAAADPHKADLVWQPWEDLESSREKQRQVEDLLTAACSSIFPGAGTNQELALHCLHESRGDILETLNKLLLKKPLRPHNHPLATYHYTGSDQWKMAERKLFNKGIAIYKKDFFLVQKLIQTKTVAQCVEFYYTYKKQVKIGRNGTLTFGDVDTSDEKSAQEEVEVDIKTSQKFPRVPLPRRESPSEERLEPKREVKEPRKEGEEEVPEIQEKEEQEEGRERSRRAAAVKATQTLQANESASDILILRSHESNAPGSAGGQASEKPREGTGKSRRALPFSEKKKKTETFSKTQNQENTFPCKKCGR [ELMSAN1] | -0.0645 | 0.257 |
| WWP1 | -0.159 | 0.0121 |
| BRCA1 | -0.318 | 0.246 |
| MAASKKAVLGPLVGAVDQGTSSTRFLVFNSRTAELLSHHQVEIKQEFPREGWVEQDPKEILHSVYECIEKTCEKLGQLNIGISNIKAIGVSNQRETTVVWDKITGEPLYNAVVWLDLRTQSTVESLSKRIPGNNNFVKSKTGLPLSTYFSAVKLRWLLDNVRKVQKAVEEKRALFGTIDSWLIWSLTGGVNGGVHCTDVTNASRTMLFNIHSLEWDKQLCEFFGIPMEILPHVRSSSEIYGLMKAGALEGVPISGCLGDQSAALVGQMCFQIGQAKNTYGTGCFLLCNTGHKCVFSDHGLLTTVAYKLGRDKPVYYALEGSVAIAGAVIRWLRDNLGIIKTSEEIEKLAKEVGTSYGCYFVPAFSGLYAPYWEPSARGIICGLTQFTNKCHIAFAALEAVCFQTREILDAMNRDCGIPLSHLQVDGGMTSNKILMQLQADILYIPVVKPLMPETTALGAAMAAGAAEGVDVWSLEPEDLSAVTMERFEPQINAEESEIRYSTWKKAVMKSMGWVTTQSPEGGDPSVFCSLPLGFFIVSSMAMLIGARYISGIP [GK3P] | -0.0732 | -0.0298 |
| MRRSLAPSQLAKRKPEGRSCDDEDWQPGLVTPRKRKSSSETQIQECFLSPFRKPLSQLTNQPPCLDSSQHEAFIRSILSKPFKVPIPNYQGPLGSRALGLKRAGVRRALHDPLEKDALVLYEPPPLSAHDQLKLDKEKLPVHVVVDPILSKVLRPHQREGVKFLWECVTSRRIPGSHGCIMADEMGLGKTLQCITLMWTLLRQSPECKPEIDKAVVVSPSSLVKNWYNEVGKWLGGRIQPLAIDGGSKDEIDQKLEGFMNQRGARVSSPILIISYETFRLHVGVLQKGSVGLVICDEGHRLKNSENQTYQALDSLNTSRRVLISGTPIQNDLLEYFSLVHFVNSGILGTAHEFKKHFELPILKGRDAAASEADRQLGEERLRELTSIVNRCLIRRTSDILSKYLPVKIEQVVCCRLTPLQTELYKRFLRQAKPAEELLEGKMSVSSLSSITSLKKLCNHPALIYDKCVEEEDGFVGALDLFPPGYSSKALEPQLSGKMLVLDYILAVTRSRSSDKVVLVSNYTQTLDLFEKLCRARRYLYVRLDGTMSIKKRAKVVERFNSPSSPDFVFMLSSKAGGCGLNLIGANRLVMFDPDWNPANDEQAMARVWRDGQKKTCYIYRLLSAGTIEEKIFQRQSHKKALSSCVVDEEQDVERHFSLGELKELFILDEASLSDTHDRLHCRRCVNSRQIRPPPDGSDCTSDLAGWNHCTDKWGLRDEVLQAAWDAASTAITFVFHQRSHEEQRGLR [RAD54L] | -0.0919 | -0.192 |
| FAM208B | -0.671 | 0.423 |
| CLK4 | -1.44 | 0.508 |
| MLPGVGVFGTSLTARVIIPLLKDEGFAVKALWGRTQEEAEELAKEMSVPFYTSRIDEVLLHQDVDLVCINLPPPLTRQIAVKTLGIGKNVICDRTATPLDAFRMTSAAHYYPKLMSIMGNVLRFLPAFVRMKQLIEEGYVGEPLVCEVQVHGGSLLGKKYNWSCDDLMGGGGLHSVGTYIIDLLTFLTGQKAVKVHGLLKTFVKQTDHIKGIRQITSDDFCTFQMVLEGGVCCTVTLNFNVPGEFKQDVTVVGSAGRLLAVGTDLYGQRNSAPEQELLVQDATPVSNSLLPEKAFSDIPSPYLRGTIKMMQAVRQAFQDQDDRRTWDGRPLTMAATFDDCLYALCVVDTIKRSSQTGEWQNIAIMTEEPELSPAYLISEAMRRSRMSLYC [GFOD1] | -0.0575 | -0.244 |
| MNSSSANITYASRKRRKPVQKTVKPIPAEGIKSNPSKRHRDRLNTELDRLASLLPFPQDVINKLDKLSVLRLSVSYLRAKSFFDVALKSSPTERNGGQDNCRAANFREGLNLQEGEFLLQALNGFVLVVTTDALVFYASSTIQDYLGFQQSDVIHQSVYELIHTEDRAEFQRQLHWALNPSQCTESGQGIEEATGLPQTVVCYNPDQIPPENSPLMERCFICRLRCLLDNSSGFLAMNFQGKLKYLHGQKKKGKDGSILPPQLALFAIATPLQPPSILEIRTKNFIFRTKHKLDFTPIGCDAKGRIVLGYTEAELCTRGSGYQFIHAADMLYCAESHIRMIKTGESGMIVFRLLTKNNRWTWVQSNARLLYKNGRPDYIIVTQRPLTDEEGTEHLRKRNTKLPFMFTTGEAVLYEATNPFPAIMDPLPLRTKNGTSGKDSATTSTLSKDSLNPSSLLAAMMQQDESIYLYPASSTSSTAPFENNFFNESMNECRNWQDNTAPMGNDTILKHEQIDQPQDVNSFAGGHPGLFQDSKNSDLYSIMKNLGIDFEDIRHMQNEKFFRNDFSGEVDFRDIDLTDEILTYVQDSLSKSPFIPSDYQQQQSLALNSSCMVQEHLHLEQQQQHHQKQVVVEPQQQLCQKMKHMQVNGMFENWNSNQFVPFNCPQQDPQQYNVFTDLHGISQEFPYKSEMDSMPYTQNFISCNQPVLPQHSKCTELDYPMGSFEPSPYPTTSSLEDFVTCLQLPENQKHGLNPQSAIITPQTCYAGAVSMYQCQPEPQHTHVGQMQYNPVLPGQQAFLNKFQNGVLNETYPAELNNINNTQTTTHLQPLHHPSEARPFPDLTSSGFL [AHR] | -0.135 | -0.105 |
| MENLMTSSTLPPLFADEDGSKESNDLATTGLNHPEVPYSSGATSSTNNPEFVEDLSQGQLLQSESSNAAEGNEQRHEDEQRSKRGGWSKGRKRKKPLRDSNAPKSPLTGYVRFMNERREQLRAKRPEVPFPEITRMLGNEWSKLPPEEKQRYLDEADRDKERYMKELEQYQKTEAYKVFSRKTQDRQKGKSHRQDAARQATHDHEKETEVKERSVFDIPIFTEEFLNHSKAREAELRQLRKSNMEFEERNAALQKHVESMRTAVEKLEVDVIQERSRNTVLQQHLETLRQVLTSSFASMPLPGSGETPTVDTIDSYMNRLHSIILANPQDNENFIATVREVVNRLDR [HMG20A] | -0.0378 | 0.298 |
| MAASRSAGEAGPGGSQGRVVRMKRRGGRGPRRGPAGGGEKALKRLKLAVEEFVHATSEGEAPGGCEGRGAPVSFRPGGRKSRKELRKEKRHLRKARRLQRTAGPEQGPGLGGRSGAEEASGHRQDTEERARPAPSRDPSPPRKPRPSRVKAKATAATAKTRPSAAATAAARKRALLAANEEEDREIRKLERCLGLNKRKKKDGSSSVPLSFARDGLDYILGALESGKNSGLYDSSGEEEEDAGQTLPESDLESDSQDESEEEEEGDVEKEKKAQEAEAQSEDDDEDTEEEQGEEKEKGAQEKRRGKRVRFAEDEEKSENSSEDGDITDKSLCGSGEKYIPPHVRQAEETVDFKKKEELERLKKHVKGLLNRLSEPNMASISGQLEELYMAHSRKDMNDTLTSALMGACVTASAMPSRLMMEHVLLVSILHHTVGIEVGAHFLEAVVRKFDAIYKYGSEGKECDNLFTVIAHLYNFHVVQSLLIFDILKKLIGTFTEKDIELILLMLKNVGFSLRKDDALSLKELITEAQTKASGAGSEFQDQTRIRFMLETMLALKNNDMRKIPGYDPEPVEKLRKLQRALVRNAGSGSETQLRVSWDSVLSAEQTGRWWIVGSAWSGAPMIDNSHHTHLQKQLVGTVSSKILELARKQRMNTDIRRNIFCTIMTSEDFLDAFEKLLKLGLKDQQEREIIHVLMDCCLQEKTYNPFYAFLASKFCEYERRFQMTFQFSIWDKFRDLENLPATNFSNLVHLVAHLLKTKSLSLSILKVVEFSELDKPRVRFLRKVLSILLMETEVEDLSLIFTRVSDNPKLGVLREGLKLFISHFLLKNAQAHRSADEANVLREKADLATKCLQGKASLRM [NOM1] | -1 | 0.759 |
| MCAQYCISFADVEKAHINIRDSIHLTPVLTSSILNQLTGRNLFFKCELFQKTGSFKIRGALNAVRSLVPDALERKPKAVVTHSSGNHGQALTYAAKLEGIPAYIVVPQTAPDCKKLAIQAYGASIVYCEPSDESRENVAKRVTEETEGIMVHPNQEPAVIAGQGTIALEVLNQVPLVDALVVPVGGGGMLAGIAITVKALKPSVKVYAAEPSNADDCYQSKLKGKLMPNLYPPETIADGVKSSIGLNTWPIIRDLVDDIFTVTEDEIKCATQLVWERMKLLIEPTAGVGVAAVLSQHFQTVSPEVKNICIVLSGGNVDLTSSITWVKQAERPASYQSVSV [SRR] | 0.0946 | 0.0667 |
| MESTAYPLNLSLKEEEEEEEIQSRELEDGPADMQKVRICSEGGWVPALFDEVAIYFSDEEWEVLTEQQKALYREVMRMNYETVLSLEFPFPKPDMITRLEGEEESQNSDEWQLQGGTSAENEESDVKPPDWPNPMNATSQFPQPQHFDSFGLRLPRDITELPEWSEGYPFYMAMGFPGYDLSADDIAGKFQFSRGMRRSYDAGFKLMVVEYAESTNNCQAAKQFGVLEKNVRDWRKVKPQLQNAHAMRRAFRGPKNGRFALVDQRVAEYVRYMQAKGDPITREAMQLKALEIAQEMNIPEKGFKASLGWCRRMMRRYDLSLRHKVPVPQHLPEDLTEKLVTYQRSVLALRRAHDYEVAQMGNADETPICLEVPSRVTVDNQGEKPVLVKTPGREKLKITAMLGVLADGRKLPPYIILRGTYIPPGKFPSGMEIRCHRYGWMTEDLMQDWLEVVWRRRTGAVPKQRGMLILNGFRGHATDSVKNSMESMNTDMVIIPGGLTSQLQVLDVVVYKPLNDSVRAQYSNWLLAGNLALSPTGNAKKPPLGLFLEWVMVAWNSISSESIVQGFKKCHISSNLEEEDDVLWEIESELPGGGEPPKDCDTESMAESN [POGK] | -0.0733 | -0.0638 |
| WRN | -0.339 | 0.124 |
